22 molecules from patent US20110008345A1 (GlaxoSmithKline, published 2011) can be followed below.

Where a chain is given by its changes, count along the chain named. Names may count otherwise. “And” between values parts separate entries of the source, which are not always exact repeats. Equal entries are not always repeated.

For orientation: Kd means the concentration at which binding is half-saturated. What is called koff is the rate constant with which the complex falls apart. The kon is the second-order rate constant of association.

To fix the notation:
T1: recombinant E. coli-expressed cynomolgus IL-4 (cynomolgus, UniProt P79339 25-153)
T1 construct: also called cyno IL-4
T1 sequence (looked up): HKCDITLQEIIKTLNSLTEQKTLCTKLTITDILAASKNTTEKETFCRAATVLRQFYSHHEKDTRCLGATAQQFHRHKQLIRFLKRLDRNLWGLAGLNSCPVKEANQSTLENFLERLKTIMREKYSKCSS

T2: recombinant E. coli-expressed human IL-4 (human, UniProt P05112 25-153)
T2 construct: made and purified at GSK; also called Interleukin-4; rhIL-4
T2 sequence: T1 sequence (looked up) with K26E, I29V, L33F

B1: 586H-147 (bispecific antibody, human IgG1, kappa)
heavy: not shown
light: DIVMTQSPLSLPVTPGEPASISCRSSQNIVHINGNTYLEWYLQKPGQSPRLLIYKISDRFSGVPDRFSGSGSGTDFTLKISRVEADDVGIYYCFQGSHVPWTFGQGTKLEIKRTVAAPSVFIFPPSDEQLKSGTASVVCLLNNFYPREAKVQWKVDNALQSGNSQESVTEQDSKDSTYSLSSTLTLSKADYEKHKVYACEVTHQGLSSPVTKSFNRGEC
B2: 586H-ELQLE (antibody, human IgG1, kappa)
heavy: not shown
light: B1 light
notes: no dAb; linker only
B3: 586H-ASTKG-147 (bispecific antibody, human IgG1, kappa)
heavy: not shown
light: B1 light
B4: 586H-EPKSC-147 (bispecific antibody, human IgG1, kappa)
heavy: not shown
light: B1 light
B5: 586H (antibody, human IgG1, kappa)
heavy: not shown
light: B1 light
notes: no dAb; heavy chain ends in GS
B6: 586H-G4S-147 (bispecific antibody, human IgG1, kappa)
heavy: not shown
light: B1 light
B7: 586H-EPKSC (antibody, human IgG1, kappa)
heavy: not shown
light: B1 light
B8: 586H-ASTKG (antibody, human IgG1, kappa)
heavy: not shown
light: B1 light
notes: no dAb; linker only
B9: 586H-EPKSC-25 (bispecific antibody, human IgG1, kappa)
heavy: not shown
light: B1 light
B10: 586H-25 (bispecific antibody, human IgG1, kappa)
heavy: not shown
light: B1 light
B11: 586H-G4S-154 (bispecific antibody, human IgG1, kappa)
heavy: not shown
light: B1 light
B12: 586H-EPKSC-154 (bispecific antibody, human IgG1, kappa)
heavy: not shown
light: B1 light
B13: 586H-ASTKG-25 (bispecific antibody, human IgG1, kappa)
heavy: not shown
light: B1 light
B14: 586H-G4S-25 (bispecific antibody, human IgG1, kappa)
heavy: not shown
light: B1 light
B15: 586H-154 (bispecific antibody, human IgG1, kappa)
heavy: not shown
light: B1 light
B16: 586H-ASTKG-154 (bispecific antibody, human IgG1, kappa)
heavy: not shown
light: B1 light
B17: PascoH-TVAAPS-474 (bispecific antibody, human IgG1, kappa)
heavy: not shown
light: DIVLTQSPSSLSASVGDRVTITCKASQSVDYDGDSYMNWYQQKPGKAPKLLIYAASNLESGIPSRFSGSGSGTDFTFTISSLQPEDIATYYCQQSNEDPPTFGQGTKVEIKRTVAAPSVFIFPPSDEQLKSGTASVVCLLNNFYPREAKVQWKVDNALQSGNSQESVTEQDSKDSTYSLSSTLTLSKADYEKHKVYACEVTHQGLSSPVTKSFNRGEC
B18: PascoH-ASTKG-474 (bispecific antibody, human IgG1, kappa)
heavy: not shown
light: B17 light
B19: PascoH-EPKSC-474 (bispecific antibody, human IgG1, kappa)
heavy: not shown
light: B17 light
B20: PascoH-ELQLE-474 (bispecific antibody, human IgG1, kappa)
heavy: not shown
light: B17 light
B21: PascoL-474 (bispecific antibody, human IgG1, kappa)
heavy: not shown
light: DIVLTQSPSSLSASVGDRVTITCKASQSVDYDGDSYMNWYQQKPGKAPKLLIYAASNLESGIPSRFSGSGSGTDFTFTISSLQPEDIATYYCQQSNEDPPTFGQGTKVEIKRTVAAPSVFIFPPSDEQLKSGTASVVCLLNNFYPREAKVQWKVDNALQSGNSQESVTEQDSKDSTYSLSSTLTLSKADYEKHKVYACEVTHQGLSSPVTKSFNRGECGSGVQLLESGGGLVQPGGSLRLSCAASGFTFAWYDMGWVRQAPGKGLEWVSSIDWHGEVTYYADSVKGRFTISRDNSKNTLYLQMNSLRAEDTAVYYCATAEDEPGYDYWGQGTLVTVSS
B22: PascoL-ASTKG-474 (bispecific antibody, human IgG1, kappa)
heavy: not shown
light: DIVLTQSPSSLSASVGDRVTITCKASQSVDYDGDSYMNWYQQKPGKAPKLLIYAASNLESGIPSRFSGSGSGTDFTFTISSLQPEDIATYYCQQSNEDPPTFGQGTKVEIKRTVAAPSVFIFPPSDEQLKSGTASVVCLLNNFYPREAKVQWKVDNALQSGNSQESVTEQDSKDSTYSLSSTLTLSKADYEKHKVYACEVTHQGLSSPVTKSFNRGECASTKGPTGSGVQLLESGGGLVQPGGSLRLSCAASGFTFAWYDMGWVRQAPGKGLEWVSSIDWHGEVTYYADSVKGRFTISRDNSKNTLYLQMNSLRAEDTAVYYCATAEDEPGYDYWGQGTLVTVSS

The target in the first assay is T3, recombinant E. coli-expressed human IL-13 (human, UniProt P35225 35-146).
T3 construct: made and purified at GSK; also called Interleukin-13; rhIL-13
The experiment in a line: SPR. In general terms: Surface plasmon resonance follows binding to a sensor surface in real time, without labels.
Regarding B1, the Kd was found to be 0.46 nM.
Still for that read-out and setting: next, B2: 0.47 nM.
Turning to B3, the Kd amounted to 0.44 nM.
Turning to B4, the Kd is 0.46 nM.
On the same count and under the same terms, to B5 belongs 0.44 nM; to B6, 0.45 nM; to B7, 0.45 nM.
As to B8, the Kd was 0.32 nM.
For the molecule B9, the Kd came to 0.55 nM.
On the same count and under the same terms, to B10 belongs 0.39 nM; to B11, 0.37 nM.
Take B12: the Kd came out at 0.42 nM.
In the case of B13, the Kd is 0.54 nM.
Still for that read-out and setting: next, B14: 0.41 nM.
Take B15: the Kd amounted to 0.46 nM.
The same measure, in the same setting: next, B16: 0.44 nM.

For the next assay, the target named is T1, recombinant E. coli-expressed …. As to the kind of experiment: SPR.
On to B17, for which the Kd came to 0.0491 nM, the koff is 8.85e-05 s⁻¹ and the kon was found to be 1.8e+06 M⁻¹ s⁻¹.
B18: the Kd came out at 0.0445 nM, the koff is 7.9e-05 s⁻¹ and the kon turned out to be 1.78e+06 M⁻¹ s⁻¹.

In a further assay the target is T4, recombinant E. coli-expressed cynomolgus IL-13 (cynomolgus, UniProt Q0PW92 21-132).
T4 construct: also called cyno IL-13
As to the kind of experiment: SPR.
With B17, the Kd is 27.1 nM, the koff came to 0.0117 s⁻¹ and the kon is 433000 M⁻¹ s⁻¹.
On to B18, for which the Kd amounted to 29.5 nM, the koff was 0.0107 s⁻¹ and the kon amounted to 364000 M⁻¹ s⁻¹.

Another assay deals with T2, recombinant E. coli-expressed human IL-4. As to the kind of experiment: SPR exp 1.
Regarding B17, the Kd is 0.02 nM, the koff is 9.7e-05 s⁻¹ and the kon was determined as 5.5e+06 M⁻¹ s⁻¹.
Consider B19, for which the Kd stood at 0.02 nM, the koff is 9.8e-05 s⁻¹ and the kon stood at 4.9e+06 M⁻¹ s⁻¹.
For the molecule B20, the Kd is 0.02 nM, the koff amounted to 0.00011 s⁻¹ and the kon came out at 5.1e+06 M⁻¹ s⁻¹.
In the same order, the values of B18 are 0.02 nM, 8.6e-05 s⁻¹ and 5.3e+06 M⁻¹ s⁻¹.

For another assay the target is unchanged. As to the kind of experiment: SPR exp 2.
Turning to B21, the dissociation constant (Kd) was 0.065 nM and 0.048 nM; the koff is 0.000184 s⁻¹ and 0.000122 s⁻¹; the kon was 2.8e+06 M⁻¹ s⁻¹ and 2.53e+06 M⁻¹ s⁻¹.
B22: the Kd is 0.041 nM and 0.06 nM; the koff is 0.000121 s⁻¹ and 0.000152 s⁻¹; the kon is 2.95e+06 M⁻¹ s⁻¹ and 2.54e+06 M⁻¹ s⁻¹.

For a further assay the target is unchanged. The experiment in a line: SPR.
With B1, the Kd came out at 345 nM, the koff turned out to be 0.00118 s⁻¹ and the kon was determined as 3420 M⁻¹ s⁻¹.
In the case of B2, the binding result is on record as “no binding (tested: 512 nM top concentration)”.
Regarding B3, the Kd stood at 18.8 nM, the koff stood at 0.00069 s⁻¹ and the kon was 36700 M⁻¹ s⁻¹.
On the same counts, the results for B4 are 26.4 nM, 0.000671 s⁻¹ and 25400 M⁻¹ s⁻¹.
Consider B5, for which the binding result was “no binding (tested: 512 nM top concentration)”.
With B6, the Kd amounted to 108 nM, the koff amounted to 0.000457 s⁻¹ and the kon was found to be 4210 M⁻¹ s⁻¹.
B7: the binding result is recorded as “no binding (tested: 512 nM top concentration)”.
The same measure, in the same setting: next, B8: “no binding (tested: 512 nM top concentration)”.
Consider B9, for which the Kd came to 29.6 nM, the koff stood at 0.00142 s⁻¹ and the kon was 47900 M⁻¹ s⁻¹.
With B10, the Kd was determined as 67 nM, the koff turned out to be 0.000411 s⁻¹ and the kon turned out to be 6130 M⁻¹ s⁻¹.
Consider B11, for which the Kd stood at 138 nM, the koff was found to be 0.000685 s⁻¹ and the kon was 5000 M⁻¹ s⁻¹.
In the same order, the values of B12 are 18.8 nM, 0.00057 s⁻¹ and 30300 M⁻¹ s⁻¹.
For B13, the Kd was found to be 21.8 nM and the koff was found to be 0.0012 s⁻¹.
For B14, the Kd was 151 nM, the koff turned out to be 0.000954 s⁻¹ and the kon is 6300 M⁻¹ s⁻¹.
As to B15, the Kd is 285 nM, the koff came out at 0.00174 s⁻¹ and the kon is 6100 M⁻¹ s⁻¹.
As for B16, the Kd is 8.7 nM, the koff worked out at 0.000284 s⁻¹ and the kon came out at 32600 M⁻¹ s⁻¹.

For another assay, the target named is T3, recombinant E. coli-expressed human …. The experiment in a line: SPR exp 1.
For the molecule B17, the Kd stood at 0.94 nM, the dissociation rate constant (koff) worked out at 0.00042 s⁻¹ and the kon stood at 450000 M⁻¹ s⁻¹.
Turning to B19, the Kd amounted to 1.1 nM, the koff is 0.0004 s⁻¹ and the kon stood at 350000 M⁻¹ s⁻¹.
On the same counts, the results for B20 are 1.8 nM, 0.00062 s⁻¹ and 340000 M⁻¹ s⁻¹.
On the same counts, the results for B18 are 1.5 nM, 0.00046 s⁻¹ and 310000 M⁻¹ s⁻¹.

A further assay shares this target. As to the kind of experiment: SPR exp 2.
As for B21, the Kd is 1.34 nM and 1.24 nM; the koff was 0.000382 s⁻¹ and 0.000386 s⁻¹; the kon was 286000 M⁻¹ s⁻¹ and 312000 M⁻¹ s⁻¹.
Regarding B22, the Kd was 0.451 nM and 0.595 nM; the koff is 0.000238 s⁻¹ and 0.00032 s⁻¹; the association rate constant (kon) was 526000 M⁻¹ s⁻¹ and 538000 M⁻¹ s⁻¹.
